# Data reported in the nanobody polyreactivity screen of Harvey et al. (2022).
# Assay: yeast display, Sf9 membrane polyspecificity reagent, FACS + sequencing; frameworks hold sequencing errors
# Summary of the method: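 Using colony PCR, genes from sorted yeast display clones were amplified, then sequenced on MiSeq at 2 × 250 and filtered by CDR length. The clones had been stained with 10% biotinylated, detergent-solubilized Sf9 membrane reagent for 1 hour at 4 °C and sorted by FACS into low and high (top ~1%) gates on anti-HA and streptavidin fluorescence. Polyreactivity labels come from the gate of origin.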
row,Sequence,polyreactivity (PSR sort gate)
1,QVQLVESGGGLVQAGGSLRLSCAASGLIFDSDAMGWYRQAPGKERELVAAITYTGGSTYYADSVKGRFTISRDSAKNTVYLQMNSLKPEDTAVYYCAARRQRDRYGYWGQGTKVTVSS,high polyreactivity
2,QVQLVESGGGLVQAGGSLRLSCAASGRIFQYNTMGWYRQAPGKERELVAGISSGGSTNYADSVKGRFTISRDNAKNTVYLQMNSLKPEDTAVYYCAARAKRYNVRFDYWGQGTQVTVSS,high polyreactivity
3,QVQLVESGGGLVQAGGSLRLSCAASGNIFYNGMGWYRQAPGKERELVAAIRGSAGRTYADSVKGRFTISRDNAKNTVYLQMNILKPEDTAVYYCAAAKRYYSEMYWGQGTQVTVSS,high polyreactivity
4,QVQLVESGGGLVQAGGSLRLSCAASGRTVYANAMGWYRQAPGKERELVAAISTGGDGTYYADSVKGRFTISRDNAKNPVYLQMNSQKPEDTAVYYCAVRHRASGMLYDYWGQGTQVTVSS,low polyreactivity
5,QVQLVESGGGLVQAGGSLRLSCAASGGIFRYYAMGWYRQAPGKERELVAAITSSGTSTYYADSVKGRFTISRDNAKNTVYLQMNSLKPEDTAVYYCAATRTKRKFDYWGQGTQVTVSS,high polyreactivity
6,QVQLVESGGGLVQAGGSLRLSCAASGSTFRYYTMGWYRQAPGKERELVAAITWSGGSTYYADSVKGRFTISRDNAKNTVNLQMNSLKPEDTEVYYCNKEDVGSSESDYWGQGTQVTVSS,high polyreactivity
7,QVQLVESGGGLVQAGGSLRLSCSASGSTFRIYAMGWYRQAPGKERELVAAISWSSGSTYYADSVKGRFTISRDNAKKSVYLQMNSLKPEDTAVYYCATYARRSGYYYWGQGSQVTVSS,high polyreactivity
8,QVQLVESGGGLVQAGGSLRLSCAASGRTFYPNAMGWSRQAPGKEREVVAAINSGGSTYYADSVKGRFTISRDKAKNTVYLQMNSLKPEDTAVYYCNAERRIAYEYWGQGTQVTVSS,low polyreactivity
9,QVQLVESGGGLDQAGGTLRLSSAASGFTFGSYAMRWYRQAHGKERELVAAITRSGSTTYYADSVKGRFTISRDNAKNTFFLQMNSLKPEDTAVDYCNAYTVRSYRFDYWGQGTQVTVSS,high polyreactivity
10,QVQLVESGGGLVQAGGSHRLSCAASGITFTVNSMGWYRQAPGKERELVAAISNDGSTYYADSVKGRFTISRDNAKNTVYLQMNSLKPEDTAVYYCAADTWDDFGPYGYDYWGQGTHVTVSS,low polyreactivity
11,QVQLVESGGGLVQAGGSLRLSCAASGRIFVKYVIGWYRQAPGKERELVAAISSSGGRTYYADSVKGRFTISRDNAKNTVYLQMNSLKPEDTAVYYCAASFRRIYVSGLGGPFDYWGQGTQVNVSS,high polyreactivity
12,QVQLVESGGGLVQAGGSLRLSCAASGSTFSYYAMGWDRQAPWKERELVAAITAGGGSTYYADSVKGRFTISRDNAKNTVYLQMNSLKPEDTAVYYCNADQIFGPALNLWKLDYWGQGTQVTVSS,low polyreactivity
13,QVQLVESGGGLLQAGGSLRLSCAASGIFGRYAMGWYRQAPGKERELVAGISWSGVRTYYADSVKGRFTISRDNAKNTVYLQINSLKPEDTSVYYCPARPWNDGYYVGRFHMDYWGQGTQVTVSS,low polyreactivity
14,QVQLVESGGGLVQAGGSLRLSCAASGFTFRLYTMGWYRQAPGKERELVAGISTSGGSTYYADSVKGRFTISRDNAKNTVYLQMNSLKPEDTAVYYCAAQAFTSYDYWGQGTQVTVSS,high polyreactivity
15,QVQLVESGGGLVQAGGSLRLSCAASGFTFLPYVMGWYRQAPGKERELVAAISSSGGSTYYADSVKGRFTISRDNAKNTVYLQMNSLKPEDTAVYYCAKEIGVRRRDYEDYEYWGQGTQVTVSS,low polyreactivity
16,QVQLVESGGGLVQAGGSLRLSCAASGSTFYYNAMGWYRQAPGKERELVATISGGGTTYYADSVKGRFTISRDNAKNSVYLQMISLKPEDTAVYYCATDWHIEYLYRKVHGRKHDYWGQGTQVTVSS,low polyreactivity
17,QVQLVESGGGLVQAGGSLRLSCAASGRIFYDNAMGWYRQAPGKERELVAAISYSGDSTYYADSVKGRFTISRDNAKNTVYVQMNSLKPEDTAVYYCAAVYISQGAFAYDYWGQGTQVTVSS,low polyreactivity
18,QVQLVESGGGLVQAGGSLRLSCAASGVYAMGWYRQAPGQERELVAAITSVGSTNYADSVKGRFTISRDNAKNTVYLQMNSLKPEDTAVYYCNTDRDTDELDYWGQGTQVTVSS,low polyreactivity
19,QVQLVESGGGLVQAGGSLRLSCAASGFIFYAYAMGWYRQAPGKEREFVAAISARGGNTYYADSVKGRFTISRDNAKNSVYLQMNSLKPEDTAVYYCAIYGGYYYLSGYYYWGQGTQVTVSS,high polyreactivity
20,QVQLVESGGGLVQAGCSLRLSCAASGRTIGYYAMGLYRPAPGKERELVAAISTRGGRTSYADSVKGRFTISRDNAKYTVYFQMNSLKPEDTAVYYCAADGVRVHKDPTGHYYWGQGTQVTVSS,high polyreactivity
21,QVQLVESGGGLVQAGGSLRLSCAASGFTFFPYAMGWYRQAPGKEREFVAANFSDGSTYYADSVKGRFTISRDNAKNTVYLQINILKPEDTAVYYWAAAWYEQAYQTGYFEFDYWGLGTQVTVSS,low polyreactivity

row,Sequence,polyreactivity (PSR sort gate)
1,QVQLVESGGGLVQAGGSLRLSCPASGRIFGTYPMGWSRQEPGKESELVARITRGSSTYYADSVKGRFTISRDNAKNTVYLQMNSLKPEDTAVYYCAAVGWGYSYRARYGYWGQGTQVTVSS,high polyreactivity
2,QVQLVESGGGLFQAGGSHRLSCAASGRIFPSYAMGWYRQAPGTQRELVAAIPRGGASTYYADSVKGRFTISRDIAQNTVYLQMNSLKPEDTAVYYCAARRSYTYGRDYWGQGTQVTVSS,high polyreactivity
3,QVQLVESGGGLVQAGGSLRLSCAASGIIFSDYAMGWYRQAPGKERELVAAITGGGSTYYADSVKGRFTISPDNAQNTVYLQMNSLKPEDTSVYYCNTDAWHETPVSGYSWGQCTQVTVSS,low polyreactivity
4,QVQLVESGGGLVQAGGSLRLSCAASGSTLYHSTMGWYRKAPGKETELVAAITWSGGSTSYADSVKGRFTISRDNAKNTVYLQMNSLKPEDTAVYYCAADDTPDDSDYWGQGTQVTVSS,low polyreactivity
5,QVQLVESGGGLVQAGGSLRLSCAASGSIFGRYGMGWYRQAPGKERELVAAITSGTRTNYADSVKGRFTISRDNAKNTVYLQMNSLKPEDTAVYYCNALRLRGNYEYGYWGHGTQVTVSS,low polyreactivity
6,QVQLVESGGGLVQAGGSLRLSCAASGSTFWYYAMGWYRQAPGKEREFVAAITTSAGRTYDADSVKGRFTISRDHAKNTVYLQMNSLKPEDTAVYYCAAEPRQYWEYNYWGQGTQVTVSS,high polyreactivity
7,QVQLVESGGGLVQAGGSLRLSCAASGIIFIYNAMGWYRQAPGKERELVADIRRSGSTSYADSVKGRFTISRDNAKNTVYLQMNSLKPEDTAVYYCAADTSTWFGAYYLRDPYDYWGQGTQVTVSS,low polyreactivity
8,QVQLQESGGGQVQAGGSLRQSCAASGSIFQATYMGWDRQAPSKEREFVASITYGSITNYADSVKGRFTIGRDNAKDTWYLQMNSLKPEDAAVYYCAVDRHYIPAFHYWGQGTQVNVSS,low polyreactivity
9,QVQLVESGGGLVQAGGSLRLSCAASGSTFKIYAMGWYRQAPGKERELVASIRGRGGSTYYADSVKGRFTISRDNAKNTVYLQLNSLKPEDTAVYYCNATYGHRYAPGISYDYWGQGSQVTVSS,high polyreactivity
10,QVQLVESGGGLVQAGGSLRLSCAASGSTFLRYAMGWYREAPGTERELVAAISVSGGSTYYADSVKGRFTISRDNAKNTVYLQMNSLKPEYTAVYYCIAVTKFHRRYNYWGQGTQVTVSS,high polyreactivity
11,QVQLVESGGGLVQAGGSLRLSCAASGSTFAYYMGWYRQAPGKERELVASISTYYADSVKGRFTISRDNAKNTVYLQMNSLKPEDTAVYSCAKGYPDPQWGGVLAYDYWGQGTQVTVSS,low polyreactivity
12,QVQLVESGGGLVQAGGSLRLSCAASGYIFYAYAMGWYRQAPGKERELVAAISSGGGRTYYADSVKGRFTISRDNAKNTVDLQRNSLKPEDTAVYYCAARRRDRGEYYYWGQGTQVTVSS,high polyreactivity
13,QVQLVESGGGLVQAGGSLRFSCAASGITFKGYAMGWYRQAPGKERELVAAINSRGGTYADSVKGRFTISRDNAKNTVYLQMNSLKPEDTAVYYCAVTAVRPLPLDSGYDYWGQGTQVTVSS,low polyreactivity
14,QVQLVESGGGLVQAGGRLRLSCAASGRTFDTNAMGWYRQAPGKQRELVAVITARGGNTSYADSVKGRFTISRDYAKNTVYLLMNRLKPEDTAVYLCAARVYRAPWTYVEGNYWGQGTQVTVSS,low polyreactivity
15,QVQLVESGGGLVQAGGSLRLSCAASGRTFGGYAMGWYRQAPGKETQLVATITSGGSTYYADSVKGRFTISRDNAKNTVYLQMTSLKPEDTAVYYCAADTYFETSTRAIPSNDYWGQGTQVTVSS,low polyreactivity
16,QVQLVETGGGLVQAGGSLRLSCAASGFIFEFYAMGWYRQAPGKERELVAAITGRGGSTYYADSVKGRFTISRDNAKNTVYLQMNSLKPEDTAVYYCAASIGGQVPGFGWYDYWGQGTQVTVSS,low polyreactivity
17,QVQLVESGGGLVQAGGSLRLSCAASGSTFVRNAMGWYRQAPGKERELVAAISNVGSTYYADSVKGRFTISRDNAKNTVYLQMNSLKPEDTAVYYGTKQLWYHKFNYWGQGTQVTVSS,low polyreactivity
18,QVQLVESGGGLVQAGGSLSLSCAASGRILYSYAMGWYRQAPGKERELVASISLSGGRTYADSVKGRFTISRDNAKNTVYLQMNSLKPEDTAVYYCNARIRTSRYLWPFDYWGQGTQVTVSS,high polyreactivity
19,QVQLVESGGGLVQAGGSLRLSCAASGLIVGGYTMGWYRQAPGKERELVAAIDSGGSTKYADSVKGRFTISRDNAKNTVYLQMNSLKPEDTAVYYCAARDYYAWRYRYHHEVSEFDYWGQGTQVTVSS,low polyreactivity
20,QVQLVESGGGLVQAGGSLRLSCAASGRIFKQYAMGWYRQAPGKEREFVAAISSRGTRTYYADSVKGRFTISRDNAKNTVYLQMISLKPEDTAVYYCNAVQAQAAYEYWGQGTQVTVSS,high polyreactivity
